Test results as given in the Immune Epitope Database (IEDB).
Blank lines part the entries; values can stand above or below the sequence they belong to.

What was measured:
[1] = biological target: HLA-A*02:01; assay: IEDB peptide-MHC binding, purified MHC/competitive/radioactivity; filed as Kd, often an IC50 or EC50 that approximates it; ≥ and ≤ were set here for values at or beyond the usual limits of such assays
[2] = biological target: HLA-A*02:17; assay: as above
[3] = biological target: HLA-A*68:02; assay: as above
[4] = biological target: HLA-A*02:02; assay: as above
[5] = biological target: HLA-A*02:06; assay: as above
[6] = biological target: HLA-A*02:03; assay: as above
[7] = biological target: HLA-A*30:01; assay: as above
[8] = biological target: HLA-B*15:03; assay: as above
[9] = biological target: HLA-B*15:01; assay: as above
[10] = biological target: HLA-A*32:01; assay: as above
[11] = biological target: HLA-B*08:01; assay: as above
[12] = biological target: HLA-A*02:01; assay: IEDB peptide-MHC binding, purified MHC/direct/fluorescence; filed as Kd, often an IC50 or EC50 that approximates it; ≥ and ≤ were set here for values at or beyond the usual limits of such assays
[13] = biological target: HLA-A*01:01; assay: as above
[14] = biological target: HLA-B*15:01; assay: as above
[15] = biological target: HLA-B*58:01; assay: as above
[16] = biological target: HLA-B*07:02; assay: as above
[17] = biological target: HLA-B*44:02; assay: as above
[18] = biological target: HLA-A*24:03; assay: as above
[19] = biological target: HLA-A*26:01; assay: as above
[20] = biological target: HLA-B*27:05; assay: as above
[21] = biological target: HLA-A*03:01; assay: as above
[22] = biological target: HLA-A*11:01; assay: as above
[23] = biological target: HLA-B*40:01; assay: as above
[24] = biological target: HLA-B*08:01; assay: as above
[25] = biological target: HLA-A*31:01; assay: as above
[26] = biological target: HLA-A*69:01; assay: as above
[27] = biological target: HLA-A*23:01; assay: IEDB peptide-MHC binding, purified MHC/competitive/radioactivity; filed as Kd, often an IC50 or EC50 that approximates it; ≥ and ≤ were set here for values at or beyond the usual limits of such assays; conditions: source organism: Dengue virus 4 Philippines/H241/1956
[28] = biological target: HLA-A*24:02; assay: as above; conditions: source organism: Dengue virus 4 Philippines/H241/1956
[29] = biological target: HLA-B*39:01; assay: IEDB peptide-MHC binding, purified MHC/competitive/fluorescence; filed as Kd, often an IC50 or EC50 that approximates it; ≥ and ≤ were set here for values at or beyond the usual limits of such assays; conditions: source organism: Human herpesvirus 5 strain Towne
[30] = biological target: HLA-B*57:01; assay: as above; conditions: source organism: Human herpesvirus 5 strain Towne
[31] = biological target: HLA-B*18:01; assay: as above; conditions: source organism: Human herpesvirus 5 strain Towne
[32] = biological target: HLA-B*15:01; assay: as above; conditions: source organism: Human herpesvirus 5 strain Towne
[33] = biological target: HLA-B*51:01; assay: as above; conditions: source organism: Human herpesvirus 5 strain Towne
[34] = biological target: HLA-B*07:02; assay: IEDB peptide-MHC binding, purified MHC/competitive/radioactivity; filed as Kd, often an IC50 or EC50 that approximates it; ≥ and ≤ were set here for values at or beyond the usual limits of such assays; conditions: source organism: Dengue virus 4 Philippines/H241/1956
[35] = source organism: Dengue virus 2 Jamaica/1409/1983
[36] = source organism: Trypanosoma cruzi
[37] = source organism: Dengue virus 3 Sri Lanka/1266/2000
[38] = source organism: Dengue virus 3 Martinique/1243/1999
[39] = source organism: Vaccinia virus WR
[40] = source organism: Dengue virus 3 China/80-2/1980
[41] = source organism: Neisseria gonorrhoeae
[42] = source organism: Vibrio parahaemolyticus
[43] = source organism: Vibrio vulnificus
[44] = source organism: Dengue virus 1 Singapore/S275/1990
[45] = source organism: Vaccinia virus Copenhagen
[46] = source organism: Dengue virus 4 Philippines/H241/1956
[47] = source organism: Giardia lamblia ATCC 50803

Kd ([1]; source organism: Homo sapiens): 8.1 nM
Sequence: ALYGSVPVL

Sequence: DLMCHATFTM
Kd [1, 35]: 209 nM
Kd [2, 35]: ≥ 70400 nM

Sequence: DTMRPTTVV
Kd [3, 36]: 1.38 nM
Kd [4, 36]: ≥ 28900 nM
Kd [1, 36]: ≥ 83300 nM
Kd [5, 36]: 3040 nM
Kd [6, 36]: 4630 nM

Kd ([3]; source organism: Homo sapiens): 3.18 nM
Kd ([4]; source organism: Homo sapiens): 33.2 nM
Kd ([1]; source organism: Homo sapiens): 2510 nM
Kd ([5]; source organism: Homo sapiens): ≥ 38800 nM
Kd ([6]; source organism: Homo sapiens): 114 nM
Sequence: ELADKVTKL

Kd ([4]; source organism: Homo sapiens): 123 nM
Kd ([1]; source organism: Homo sapiens): 3100 nM
Sequence: EMIQLQEEL

Sequence: FAGKTVWFV
Kd [2, 37]: 293 nM
Kd [5, 38]: 39.5 nM

Sequence: FIRYRMHPM
Kd [7, 39]: 2790 nM
Kd [8, 39]: 21.6 nM
Kd [9, 39]: 1.22 nM
Kd [10, 39]: 14300 nM
Kd [11, 39]: 0.208 nM

Sequence: FMMVLLIPEP
Kd [1, 40]: 93.1 nM
Kd [2, 40]: 5730 nM
Kd [5, 38]: 124 nM

Kd ([1]; source organism: Homo sapiens): 132 nM
Sequence: GLDVLTAKV

Sequence: GLLTVCYVL
Kd [2, 35]: 802 nM

Sequence: GSDKQVVGQ
Kd [12, 41]: ≥ 20000 nM
Kd [13, 41]: ≥ 20000 nM
Kd [14, 41]: ≥ 20000 nM
Kd [15, 41]: ≥ 20000 nM
Kd [16, 41]: ≥ 20000 nM
Kd [17, 41]: ≥ 20000 nM
Kd [18, 41]: ≥ 20000 nM
Kd [19, 41]: ≥ 20000 nM
Kd [20, 41]: ≥ 20000 nM
Kd [21, 41]: ≥ 20000 nM
Kd [22, 41]: ≥ 20000 nM
Kd [23, 41]: ≥ 20000 nM
Kd [24, 41]: ≥ 20000 nM
Kd [25, 41]: ≥ 20000 nM
Kd [26, 41]: ≥ 20000 nM

Sequence: ILLRKGHVF
Kd [12, 42]: ≥ 20000 nM
Kd [13, 42]: ≥ 20000 nM
Kd [14, 43]: 115 nM
Kd [15, 42]: ≥ 20000 nM
Kd [16, 43]: 10000 nM
Kd [17, 42]: ≥ 20000 nM
Kd [18, 43]: 4280 nM
Kd [19, 42]: ≥ 20000 nM
Kd [20, 42]: ≥ 20000 nM
Kd [21, 42]: ≥ 20000 nM
Kd [22, 42]: ≥ 20000 nM
Kd [23, 42]: ≥ 20000 nM
Kd [24, 43]: 107 nM
Kd [25, 42]: ≥ 20000 nM
Kd [26, 42]: ≥ 20000 nM

Sequence: ITKINTHLA
Kd [7, 39]: 14.9 nM
Kd [8, 39]: ≥ 51400 nM
Kd [9, 39]: 2890 nM
Kd [10, 39]: ≥ 77800 nM
Kd [11, 39]: ≥ 22100 nM

Sequence: KGKAAAFAK
Kd [7, 39]: 3.12 nM
Kd [8, 39]: 1900 nM
Kd [9, 39]: 12000 nM
Kd [10, 39]: ≥ 56000 nM
Kd [11, 39]: ≥ 77700 nM

Sequence: KLVMAFIAFL
Kd [1, 44]: 28.9 nM
Kd [2, 44]: 22.4 nM
Kd ([5]; source organism: Dengue virus 1 Brazil/97-11/1997): 11.5 nM

Sequence: KSIEQHPVV
Kd [7, 39]: 2.7 nM
Kd [8, 39]: 79.6 nM
Kd [9, 39]: 70.5 nM
Kd [10, 39]: 1910 nM
Kd [11, 39]: 11700 nM

Sequence: KSSPETQQM
Kd [7, 39]: 1130 nM
Kd [8, 39]: 108 nM
Kd [9, 39]: 30.4 nM
Kd [10, 39]: 464 nM
Kd [11, 39]: 2350 nM

Sequence: LESQHIISF
Kd [8, 45]: 28.4 nM
Kd [9, 45]: 57.1 nM

Sequence: LLAGFMAYMI
Kd [1, 46]: 7.04 nM
Kd [2, 46]: 45.7 nM

Sequence: LLLLVAHYA
Kd [1, 35]: 51.9 nM
Kd [2, 35]: 7930 nM

Sequence: LLLLVAHYAI
Kd [1, 35]: 97.8 nM
Kd [2, 35]: 434 nM
Kd [5, 35]: 53.4 nM

Sequence: LLMRTTWAF
Kd [9, 46]: 1.08 nM
Kd [27]: 75.4 nM
Kd [10, 46]: 1.69 nM
Kd [11, 46]: 54.7 nM
Kd [28]: 24.4 nM

Sequence: LMMILPAAL
Kd [9, 37]: 13.6 nM
Kd [2, 37]: 78.4 nM
Kd [11, 37]: 18.1 nM
Kd [6, 37]: 15.3 nM

Sequence: LMMMLPATLA
Kd [1, 40]: 13.5 nM
Kd [2, 40]: 2880 nM
Kd [6, 40]: 17.5 nM

Sequence: LPLKMLNIPSINVH
Kd [29]: ≥ 20000 nM
Kd [30]: ≥ 20000 nM
Kd [31]: ≥ 20000 nM
Kd [32]: ≥ 20000 nM
Kd [33]: ≥ 20000 nM

Sequence: LQRKHGGSL
Kd [9, 46]: 26.2 nM
Kd [34]: 58.2 nM
Kd [11, 46]: 57.4 nM

Sequence: LTFKACDHI
Kd [7, 39]: 81.5 nM
Kd [8, 39]: 845 nM
Kd [9, 39]: 973 nM
Kd [10, 39]: 18800 nM
Kd [11, 39]: 838 nM

Kd ([1]; source organism: Triticum aestivum): 147 nM
Sequence: QLIPCMDVV

Sequence: RRLLKFRVE
Kd [7, 45]: 1040 nM
Kd [8, 45]: 14900 nM
Kd [9, 45]: ≥ 55000 nM
Kd [10, 45]: ≥ 34900 nM
Kd [11, 45]: 128 nM

Sequence: TLLLLGLMIL
Kd [2, 40]: 2420 nM
Kd [11, 38]: 890 nM

Sequence: VEGEGLHKL
Kd [17, 44]: ≥ 20000 nM

Sequence: VIIMAINVF
Kd [8, 39]: 2030 nM
Kd [9, 39]: 26.4 nM

Sequence: VLLKTALLIV
Kd [2, 40]: 2490 nM
Kd [5, 38]: 37 nM
Kd [6, 38]: 40.1 nM

Sequence: WMTTEDMLTV
Kd [1, 40]: 13.6 nM
Kd [2, 40]: 2240 nM
Kd [5, 38]: 8.59 nM
Kd [6, 38]: 37.5 nM

Sequence: WSFLEDRVY
Kd [12, 47]: ≥ 20000 nM
Kd [13, 47]: 2270 nM
Kd [14, 47]: 42 nM
Kd [15, 47]: 484 nM
Kd [16, 47]: ≥ 20000 nM
Kd [17, 47]: ≥ 20000 nM
Kd [18, 47]: ≥ 20000 nM
Kd [19, 47]: ≥ 20000 nM
Kd [20, 47]: ≥ 20000 nM
Kd [21, 47]: ≥ 20000 nM
Kd [22, 47]: ≥ 20000 nM
Kd [23, 47]: ≥ 20000 nM
Kd [24, 47]: ≥ 20000 nM
Kd [25, 47]: ≥ 20000 nM
Kd [26, 47]: ≥ 20000 nM
